From the supplement of paper PMC10567573
± gives the standard deviation.

Assay: protein stability index of a GFP-peptide fusion (GPS, HEK-293T) (PSI 1-6); higher = more stable
[1] = treatment: DMSO, c terminus: a fixed tail appended
[2] = treatment: MLN4924 1 uM, 8 h, c terminus: a fixed tail appended
[3] = treatment: DMSO, c terminus: native
[4] = treatment: MLN4924 1 uM, 8 h, c terminus: native
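Also: 24-mer peptide tiles fused after GFP, lentivirally expressed, FACS-sorted into six equal bins by GFP/DsRed ratio, decoded by Illumina sequencing, PSI is the read-weighted mean bin number.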

Sequence | protein stability index [1] | protein stability index [2] | protein stability index [3] | protein stability index [4]
TLARCAKDILGFAVMFFIVFFAYA [PKD2L1] | 3.07 ± 0.66 | 2.68 ± 0.35 |  | 
EREAEKEQKRLERLQRKLVEPKHC [SDE2] | 4.7 ± 0.17 | 4.82 ± 0.085 |  | 
VLRCQLGDRLNVEVDAAPPVDLNK [KRT36] | 4.06 ± 0.11 | 4.14 ± 0.25 |  | 
EDFSLPAYMDRRDHPLPEVAHVKH [COX4I1] | 4.32 ± 0.28 | 4.59 ± 0.18 |  | 
PEQALDTPGDCPPGRRDEDAGEGI [TMEM175] | 5.53 ± 0.23 | 5.43 ± 0.17 |  | 
EKPRVPAFACQVAGCCQVFDALDD [ZNF511] | 3.94 ± 0.22 | 3.99 ± 0.092 |  | 
TEQALRLSVEADINGLRRVLDELT [KRT17] | 3.07 ± 0.2 | 3.18 ± 0.25 |  | 
RHRSADVLGVADGVGGWRDYGVDP [PPTC7] | 4.14 ± 0.39 | 4.07 ± 0.48 |  | 
GLNSSWVELPMNSSNGNDNGNGKN [BNIP3L] | 5.11 ± 0.42 | 5.54 ± 0.2 |  | 
DPTWIESPKTNGHIENGPFSLEQQ [SRPK2] | 4.78 ± 0.11 | 4.75 ± 0.22 |  | 
GVRCNTPAMGLQKKLRLNGGRNPY [LOXL2] | 2.75 ± 0.12 | 2.95 ± 0.34 |  | 
LMHIAHIAELLEVFDLRMMVANIL [RHOBTB2] | 2.48 ± 0.4 | 2.31 ± 0.32 |  | 
LYRGLAPNFMKVIPAVSISYVVYE [SLC25A25] | 2.71 ± 0.67 | 3.25 ± 0.51 |  | 
GLNLGKKISVPRDVMLEELSLLTN [MYOZ1] | 2.72 ± 0.41 | 3.1 ± 0.29 |  | 
GTWDDAFATFCGGLAANGALQRLD [LRRC45] | 3.2 ± 0.052 | 3.12 ± 0.28 |  | 
ERLASANLRVLVDCILRDTSEDLR [TEKT4] | 2.21 ± 0.48 | 2.05 ± 0.15 |  | 
ATFLVTFGNSEKPETMTCRLSNNQ [ZFYVE21] | 2.39 ± 0.15 | 2.24 ± 0.19 |  | 
RNRAITARRQHLKSVMLQIAATEL [TNNI2] | 2.4 ± 0.25 | 2.72 ± 0.33 |  | 
APSIDLFSTDAFSSPPQGASPVPE [SNAP91] | 4.94 ± 0.34 | 5.04 ± 0.21 |  | 
DSLLLHSSGQCRRRKRTYWNDSCG [WEE1] | 2.75 ± 0.29 | 2.82 ± 0.47 |  | 
YISLLLRAEPYPTSRFGSQCMQPN [NR2F2] | 2.55 ± 0.5 | 2.43 ± 0.39 |  | 
SREWSGKEKWWDGQRDRKAEHWKH [PBXIP1] | 3.69 ± 0.27 | 3.91 ± 0.064 |  | 
REAGFHQYEVSNFARNGALSTHNW [RSAD1] | 2.97 ± 0.28 | 3.08 ± 0.2 |  | 

Sequence | protein stability index [1] | protein stability index [2] | protein stability index [3] | protein stability index [4]
YFSTPQTMDLFLNYSMNMQPEDV [NANOGP8] |  |  | 2.34 ± 0.21 | 2.27 ± 0.55
FNMLHDNSKPCISLNGPLSTSRHV [ADAMTS4] | 3.21 ± 0.22 | 3.26 ± 0.25 |  | 
QLEEKLEIANEDRKHALERFEQEA [CCDC89] | 5.4 ± 0.19 | 5.4 ± 0.12 |  | 
GTATRQNNWPPLPSFCPVQPCFFQ [SCAMP3] | 2.42 ± 0.16 | 2.45 ± 0.19 |  | 
MNVDFDAPLGYKEPERQVQHEEST [UFD1] | 5.28 ± 0.062 | 5.31 ± 0.29 |  | 
LFQRKLSWIKMTKLEYEEIALDLT [FAN1] | 3.02 ± 0.39 | 2.45 ± 0.24 |  | 
FHRSQTLSYRNGYAIVRRPTVGIG [EFHC1] | 2.44 ± 0.39 | 2.54 ± 0.22 |  | 
GVEIDEINVYGNTALHIACYNGQD [ANKRD44] | 3.58 ± 0.19 | 3.55 ± 0.33 |  | 
KVIYDFIEKTGGVEAVKNELRRQA [WASL] | 2.13 ± 0.41 | 2.28 ± 0.23 |  | 
SDGWWRGSYNGQIGWFPSNYVLEE [NCK2] | 2.89 ± 0.35 | 2.73 ± 0.12 |  | 
IPISLETQAHIQECKHPSVFQHGD [MCOLN1] | 4.26 ± 0.23 | 4.21 ± 0.14 |  | 
REHELLCRADHGLLLERAAAGSPR [ISL2] | 3.82 ± 0.31 | 3.89 ± 0.062 |  | 
ERLKANDNLKFSQEYESIDPGQQF [PTPRD] | 4.21 ± 0.12 | 4.22 ± 0.16 |  | 
EKQADFLDKQMSRDEHRARAMKIP [NFE2L1] | 4.46 ± 0.16 | 4.58 ± 0.12 |  | 
SMSGGRFRCPTCRHEVIMDRHGVY [TRIM63] | 2.24 ± 0.11 | 2.39 ± 0.35 |  | 
KLWSFFIYLLRRQIRTVIQYQTVR [CTDNEP1] | 2.99 ± 0.3 | 2.94 ± 0.37 |  | 
CKAFFKRSIQGHNDYICPATNQCT [ESR2] | 2.15 ± 0.4 | 2.45 ± 0.51 |  | 
ILVLKTDSQDLVASFRVTTGTSNT [RBBP5] | 2.2 ± 0.41 | 2.36 ± 0.53 |  | 
KNTFEFLKENNFQPYPLPHVRHMA [CLK3] | 2.54 ± 0.26 | 2.51 ± 0.12 |  | 
MMRREDEEEEGTMMKAKGDLEMKE [ZBED2] | 5.56 ± 0.25 | 5.64 ± 0.29 |  | 
GSGADSEPARHIFSFSWLNSLNE [TRIM55] |  |  | 3.53 ± 0.41 | 3.53 ± 0.26
VTDYFFTLVQREEPLRILSKYHRF [CDS2] | 2.45 ± 0.21 | 2.42 ± 0.28 |  | 
EADINGLRRVLDELTLSKTDLEMQ [KRT13] | 4.32 ± 0.079 | 4.26 ± 0.3 |  | 

Sequence | protein stability index [1] | protein stability index [2] | protein stability index [3] | protein stability index [4]
TPVSNSLLPEKAFSDIPSPYLRGT [GFOD1] | 4.03 ± 0.28 | 3.98 ± 0.1 |  | 
GEKSENNSSNSDIVHVEKEEVPEG [BCL2L13] | 5.8 ± 0.2 | 5.3 ± 0.76 |  | 
GAGHCSASPGPAAPTARMPGRLRG | 4.82 ± 0.34 | 4.78 ± 0.25 |  | 
IGVAGNHWDGYSKGVNRKLGRTGL [FUT8] | 3.1 ± 0.16 | 2.9 ± 0.18 |  | 
PDKECRRCMQCDAKFDFLTRKHHC [ZFYVE21] | 3.91 ± 0.078 | 4 ± 0.27 |  | 
LYTGELDENERDLMHIAHIAELLE [RHOBTB2] | 2.69 ± 0.33 | 3.09 ± 0.34 |  | 
MRLPLPPAQVHSSLSAGEKPGFLA [RASAL3] | 3.4 ± 0.085 | 3.35 ± 0.14 |  | 
PCLDQTRVKLTKRSGHTQTDYINA [PTPN9] | 3.99 ± 0.59 | 3.91 ± 0.1 |  | 
GAQELLEFTIRDLQRLGELQSELA [INTS4] | 2.54 ± 0.36 | 2.79 ± 0.29 |  | 
EPGTPSSSPDDKLLTSPRAINNLV [KLHL14] | 4.87 ± 0.16 | 4.91 ± 0.34 |  | 
PGPQGSAGQRGEPGPKGDPGEKSH [EMID1] | 5.62 ± 0.4 | 5.49 ± 0.26 |  | 
LPEWISCLIQKAQWTVGKLNCPFC [RNF180] | 2.22 ± 0.19 | 2.31 ± 0.087 |  | 
FTRNEFNLESKSTIGVEFATRSIQ [RAB11A] | 2.97 ± 0.3 | 3.2 ± 0.21 |  | 
EFLTNELSRKLMQLQHEKAELEQH [CCDC6] | 2.98 ± 0.16 | 3.05 ± 0.3 |  | 
HHAKDSEGVEIMLGVCASGLLIYR [EPB41L3] | 2.12 ± 0.69 | 2.14 ± 0.61 |  | 
TTADLDRKLSFSHSDHSSEMSLPE [SPATS1] | 5.08 ± 0.19 | 4.82 ± 0.27 |  | 
NAYKDLAWKHGNIHLSAPCIYSEV [PCMTD1] | 2.31 ± 0.17 | 2.15 ± 0.31 |  | 
TPMLNPLIYTLKNAEMKSAMRKLW [OR4A15] | 2.11 ± 0.32 | 2.04 ± 0.16 |  | 
HTHPSACQGQRLFEKLLQLTSQNI [PLD5] | 2.21 ± 0.21 | 1.84 ± 0.37 |  | 
PEQQVDMHDMLLEELAPVGTAHIP [ZNF449] | 4.68 ± 0.28 | 4.8 ± 0.085 |  | 
HKSAFNDWFSGHLNFQIEHHLFPT [FADS1] | 2.11 ± 0.18 | 2.07 ± 0.41 |  | 
NDMRDTPLHRAAFTGRKICSQGS [OSBPL1A] |  |  | 2.87 ± 0.22 | 2.73 ± 0.39
YSKTWTKQPDLTMVRKIGCYAAMK [GAN] | 2.92 ± 0.96 | 2.42 ± 0.19 |  | 

Sequence | protein stability index [1] | protein stability index [2] | protein stability index [3] | protein stability index [4]
WAVVTMTTVGYGDMKPITVGGKIV [KCNA4] | 2.84 ± 0.38 | 2.72 ± 0.55 |  | 
RNGAVRRFGQTIQSFTLRGDHRSP [NET1] | 3.36 ± 0.31 | 3.49 ± 0.13 |  | 
DFPDILEQQRKLETYLQNHFAEEE [TENT5C] | 4.45 ± 0.27 | 4.56 ± 0.22 |  | 
GAQGSGGGSTSAHYAVNSQFTMGG [CARM1] | 3.92 ± 0.34 | 4.23 ± 0.2 |  | 
KFKGWVSYSTSEQAELSYKKVSEG [DLC1] | 3.52 ± 0.22 | 3.54 ± 0.39 |  | 
RHLNDDDVTGSVKSERRNLLEDDS [VAMP4] | 5.28 ± 0.2 | 5.42 ± 0.19 |  | 
IITSRILVDQVTGVSRGVGFIRFD [ELAVL3] | 2.42 ± 0.53 | 2.53 ± 0.28 |  | 
APADPTAREGLAAPPRRLRSRKVS [FCHO1] | 5.12 ± 0.16 | 5.304 ± 0.013 |  | 
SAEELRKARSNSTLSKSEYMVIEE [KCNA3] | 4.87 ± 0.17 | 4.93 ± 0.16 |  | 
SKDLYLISQMDSDQFIPIWTVANM [LARP4] | 2.51 ± 0.6 | 1.92 ± 0.36 |  | 
SLKEAEFYDKQLKVLLSGATFLVT [ZFYVE21] | 2.27 ± 0.52 | 2.55 ± 0.19 |  | 
KWTGDFFNKGIYDIHVGLRGVPLL [CLCN6] | 2.86 ± 0.8 | 2.24 ± 0.44 |  | 
AALTNKHSQELTNEKEKALQAQVQ [SASS6] | 5.3 ± 0.086 | 5.46 ± 0.19 |  | 
CRKFPRDMKAMSPENQEYFEKHRW [RHOBTB2] | 3.22 ± 0.2 | 3.18 ± 0.29 |  | 
FSLTHTHTHTPNHRGINCFFPEL [ANKRD44] |  |  | 2.54 ± 0.56 | 2.76 ± 0.57
SHLSDTGISALVEIPKNCVVAAVG [WDR41] | 3.09 ± 0.31 | 3.22 ± 0.25 |  | 
LREIRMLKQLKHPNLVNLIEVFRR [CDKL4] | 2.31 ± 0.3 | 2.13 ± 0.67 |  | 
LDQLLRHVMNPLETLSITNCRLSE [PRAME] | 2.59 ± 0.62 | 2.39 ± 0.49 |  | 
MPSKLFAGLVHVKQCIVAHPVNPP [CRYL1] | 2.37 ± 0.17 | 2.46 ± 0.35 |  | 
TRRSTAEAFQIVLSHLLGDAGSPY [SPNS1] | 2.52 ± 0.58 | 2.56 ± 0.46 |  | 
